Measurements from patent US20230220007A1, “SETD7 EPIGENETIC MODULATORS” (Biorchestra Co., Ltd., priority 2020, published 2023).

How the values were obtained:
TAF10 = conditions: cited from earlier work
H3 and p53/TP53 = conditions: cited from earlier work
[1] = system: human retinal pigment epithelial (RPE) cells; assay: Cellular distribution of SETD7-GFP mutants under low or high glucose (GFP fluorescence); format: cell-based; conditions: SETD7-GFP mutants in human RPE cells; low glucose and high glucose conditions; FIG. 4
Description: SETD7-GFP mutants with phospho-mimicking substitutions at positions 332, 340 and/or 345 were prepared. The phospho-mimicking substitutions were T332E, S340D, and/or S345D. The SETD7-GFP mutants were expressed in human retinal pigment epithelial (RPE) cells. The fluorescence intensity emitted from the GFP signal in the cells under high or low glucose condition was measured.

[2] = system: human retinal pigment epithelial cells (RPE); assay: Nuclear translocation of SETD7 alanine (phospho-disrupting) mutants in response to high glucose levels; format: cell-based; conditions: mutants expressed in human RPE cells; FIG. 3
Text: To identify the potential role of phosphorylatable sites located in the C-terminal regions of SETD7 (FIG. 1), phosphorylatable serines, threonines and tyrosines at positions 225, 305, 332, 340, and 345 where mutated to alanine (phospho-disrupting mutations) and expressed in human retinal pigment epithelial cells (RPE). Nuclear translocation or lack thereof in response to high glucose levels was examined (FIG. 2).
SETD7 cellular distribution changed in response to changes in glucose levels for wild type SETD7 (WT) and SETD7 mutants comprising a S225A substitution or a Y305A substitutions.

Molecule	methyltransferase activity toward TAF10 (TAF10)	methyltransferase activity for H3 and p53/TP53 (H3 and p53/TP53)	translocation to the nucleus [1]	nuclear translocation in response to changes in glucose [2]
K317A: SETD7 substitution mutant at position 317 (protein) MDSDDEMVEEAVEGHLDDDGLPHGFCTVTYSSTDRFEGNFVHGEKNGRGKFFFFDGSTLEGYYVDDALQGQGVYTYEDGGVLQGTYVDGELNGPAQEYDTDGRLIFKGQYKDNIRHGVCWIYYPDGGSLVGEVNEDGEMTGEKIAYVYPDERTALYGKFIDGEMIEGKLATLMSTEEGRPHFELMPGNSVYHFDKSTSSCISTNALLPDPYESERVYVAESLISSAGEGLFSKVAVGPNTVMSFYNGVRITHQEVDSRDWALNGNTLSLDEETVIDVPEPYNHVSKYCASLGHKANHSFTPNCIYDMFVHPRFGPIACIRTLRAVEADEELTVAYGYDHSPPGKSGPEAPEWYQVELKAFQATQQK	reduction	increased		
SETD7 T332A: SETD7 mutant, Thr332 mutated to alanine; cannot be phosphorylated (protein) MDSDDEMVEEAVEGHLDDDGLPHGFCTVTYSSTDRFEGNFVHGEKNGRGKFFFFDGSTLEGYYVDDALQGQGVYTYEDGGVLQGTYVDGELNGPAQEYDTDGRLIFKGQYKDNIRHGVCWIYYPDGGSLVGEVNEDGEMTGEKIAYVYPDERTALYGKFIDGEMIEGKLATLMSTEEGRPHFELMPGNSVYHFDKSTSSCISTNALLPDPYESERVYVAESLISSAGEGLFSKVAVGPNTVMSFYNGVRITHQEVDSRDWALNGNTLSLDEETVIDVPEPYNHVSKYCASLGHKANHSFTPNCIYDMFVHPRFGPIKCIRTLRAVEADEELAVAYGYDHSPPGKSGPEAPEWYQVELKAFQATQQK			not translocated to the nucleus	did not translocate to the nucleus
SETD7 S340A: SETD7 mutant, Ser340 mutated to alanine; cannot be phosphorylated (protein) MDSDDEMVEEAVEGHLDDDGLPHGFCTVTYSSTDRFEGNFVHGEKNGRGKFFFFDGSTLEGYYVDDALQGQGVYTYEDGGVLQGTYVDGELNGPAQEYDTDGRLIFKGQYKDNIRHGVCWIYYPDGGSLVGEVNEDGEMTGEKIAYVYPDERTALYGKFIDGEMIEGKLATLMSTEEGRPHFELMPGNSVYHFDKSTSSCISTNALLPDPYESERVYVAESLISSAGEGLFSKVAVGPNTVMSFYNGVRITHQEVDSRDWALNGNTLSLDEETVIDVPEPYNHVSKYCASLGHKANHSFTPNCIYDMFVHPRFGPIKCIRTLRAVEADEELTVAYGYDHAPPGKSGPEAPEWYQVELKAFQATQQK			not translocated to the nucleus	did not translocate to the nucleus
SETD7 T332E/S340D/S345D: SETD7-GFP mutant with three phospho-mimicking substitutions (protein, UniProt Q8WTS6 1-366, looked up, variant T332E S340D S345D, GFP tag, SETD7-GFP mutant with three phospho-mimicking substitutions) Histone-lysine …: MDSDDEMVEEAVEGHLDDDGLPHGFCTVTYSSTDRFEGNFVHGEKNGRGKFFFFDGSTLEGYYVDDALQGQGVYTYEDGGVLQGTYVDGELNGPAQEYDTDGRLIFKGQYKDNIRHGVCWIYYPDGGSLVGEVNEDGEMTGEKIAYVYPDERTALYGKFIDGEMIEGKLATLMSTEEGRPHFELMPGNSVYHFDKSTSSCISTNALLPDPYESERVYVAESLISSAGEGLFSKVAVGPNTVMSFYNGVRITHQEVDSRDWALNGNTLSLDEETVIDVPEPYNHVSKYCASLGHKANHSFTPNCIYDMFVHPRFGPIKCIRTLRAVEADEELEVAYGYDHDPPGKDGPEAPEWYQVELKAFQATQQK			translocated to the nucleus	
SETD7 H297A/T332E/S340D/S345D: catalytically inert phospho-mimicking SETD7 mutant due to the H297A mutation (protein) MDSDDEMVEEAVEGHLDDDGLPHGFCTVTYSSTDRFEGNFVHGEKNGRGKFFFFDGSTLEGYYVDDALQGQGVYTYEDGGVLQGTYVDGELNGPAQEYDTDGRLIFKGQYKDNIRHGVCWIYYPDGGSLVGEVNEDGEMTGEKIAYVYPDERTALYGKFIDGEMIEGKLATLMSTEEGRPHFELMPGNSVYHFDKSTSSCISTNALLPDPYESERVYVAESLISSAGEGLFSKVAVGPNTVMSFYNGVRITHQEVDSRDWALNGNTLSLDEETVIDVPEPYNHVSKYCASLGHKANASFTPNCIYDMFVHPRFGPIKCIRTLRAVEADEELEVAYGYDHDPPGKDGPEAPEWYQVELKAFQATQQK			translocated to the nucleus	
